Experimental data published in patent publication US20220356230A1.
Residue numbers refer to the chain shown, from its start.

B1: mAb11004 (antibody, V domains shown)
VH: QVQLVESGGGVVQPGRSLRLSCVASGFTFSIYGMDWVRQAPGKGLEWVAVISYDGSNKYYADSVKGRFTISRDNSKNTLYLQMNSLRPEDTAVYYCAKDREAAADAFDIWGQGTMVTVSS
VL: DIQMTQSPSSVSASVGDRVTITCRASQGISSWLAWYQQKPGKAPKLLIYAASSLHSGVPSRFSGSGSGTDFTLTISSLQPEDFATYYCQQANSFRLTFGGGTKVEIK
B2: mAb11006 (antibody, V domains shown)
VH: EVQLVESGGGLVQPGGSLRLSCAASGFIVSRNYMSWVRQAPGKGLEWVSVIYSGGSTFYADSVKGRFTISRHNSKNTLYLQMNSLKAEDTAVYYCARELRGYFDYWGQGTLVTVSS
VL: DIQLTQSPSFLSASVGDRVTITCWASQGISSYLAWYQQKPGKAPKLLIYAASTLQSGVPSRFSGSGSGTEFTLTISSLQPEDFATYYCQLLNSYPYTFGQGTKLEIK
B3: mAb11008 (antibody, V domains shown)
VH: EVQLVESGGGLVQPGGSLRLSCAASGFTVSSNYMTWVRQAPGKGLEWVSVIYSGGSTFYADSVKGRFTISRHNSENTLYLQMNSLRAEDTAVYYCARDLAAAGTDYWGQGALVTVSS
VL: B2 VL with E81D, L90H, P95L
B4: mAb10998 (antibody, V domains shown)
VH: EVQLVESGGGLVHPGGSLRLSCAASGLTVSSNYMSWVRQAPGKGLEWVSVIYSGGSTYYADSVKGRFTISRHNSKNTLFLQMNSLRAEDTAVYYCARDRPITGTTLDVWGQGTTVTVSS
VL: DIQMTQSPSSLFASVGDRVTITCRASQSISSYLNWYQQKPGKAPKLLIYAASSLQSGVPSRFSGSGSGTDFTLTISSLQPEDFAFYYCQQTYSTPPITFGQGTRLEIK

Molecular target: Bt-SARS-CoV-2 Spike Protein (RBD)(R319-F541).hFc (SARS-CoV-2)
Assay: not given
Settings: remark: other sources report otherwise

| Binder | Binding signal (MFI) |
| --- | --- |
| B1 | 7620 |
| B2 | 3810 |
| B3 | 4110 |
| B4 | 467 |

Molecular target: Bt-SARS-CoV-2 Spike Protein (RBD)(R319-F541).mFc (SARS-CoV-2)
Assay: not given
Settings: remark: other sources report otherwise

| Binder | Binding signal (MFI) |
| --- | --- |
| B1 | 4300 |
| B2 | 1400 |
| B3 | 3050 |
| B4 | 2230 |

Molecular target: SARS-CoV-2 RBD extracellular domain expressed with a C-terminal myc-myc-hexahistidine tag (SARS-COV-2 RBD-MMH) (SARS-CoV-2)
Assay: not given
Settings: remark: other sources report otherwise

| Binder | Kd [nM] | t½ [min] |
| --- | --- | --- |
| B1 | 16.6 | 3.7 |
| B2 | 4.1 | 31.5 |
| B3 | 59.4 | 2.9 |
| B4 | 117 | 0.5 |

Molecular target: SARS-CoV-2 RBD extracellular domain expressed with a C-terminal human IgG1 (SARS-COV-2 RBD-hFc) (SARS-CoV-2)
Assay: not given
Settings: remark: other sources report otherwise

| Binder | Kd [nM] | t½ [min] |
| --- | --- | --- |
| B1 | 0.191 | 174 |
| B2 | < 0.0532 | > 1160 |
| B3 | 0.715 | 100 |
| B4 | 1.58 | 22.2 |

Molecular target: SARS-CoV-2 spike protein receptor binding domain (amino acids Arg319 to Phe541) expressed with the F (SARS-CoV-2)
Assay: not given
Settings: remark: other sources report otherwise

| Binder | SARS-CoV-2 RBD-hFc Binding to His presented ACE2 (Abs 450 nm) |
| --- | --- |
| B1 | 0.211 |

Molecular target: Human SARS Coronavirus Spike Protein (Receptor Binding Domain) rabbit Fc (Sino 40150-V31B2) (Human SARS Coronavirus), P59594
Assay: Luminex bead assay, antigen on microspheres, antibody supernatant
Settings: remark: other sources report otherwise

| Binder | Binding signal (MFI) |
| --- | --- |
| B1 | 5520 |
| B2 | 615 |
| B3 | 120 |
| B4 | 29 |

Molecular target: Human SARS Coronavirus Spike Protein (Receptor Binding Domain, His Tag) (Sino 40150-V08B2) (Human SARS Coronavirus), P59594
Assay: as above
Settings: remark: other sources report otherwise

| Binder | Binding signal (MFI) |
| --- | --- |
| B1 | 740 |
| B2 | 667 |
| B3 | 174 |
| B4 | 37 |

Molecular target: Human SARS Coronavirus Spike S1 Subunit Protein (His Tag) (Sino 40150-V08B1) (Human SARS Coronavirus), P59594
Assay: as above
Settings: remark: other sources report otherwise

| Binder | Binding signal (MFI) |
| --- | --- |
| B1 | 33 |
| B2 | 339 |
| B3 | 31 |
| B4 | 16 |

Molecular target: MERS-CoV (NCoV/Novel coronavirus) Spike Protein S1 Protein (aa 1-725, His Tag) (Sino 40069-V08B1) (MERS-CoV), K9N5Q8
Assay: as above
Settings: remark: other sources report otherwise

| Binder | Binding signal (MFI) |
| --- | --- |
| B1 | 17 |
| B2 | 18 |
| B3 | 18 |
| B4 | 19 |

Molecular target: MERS-CoV (NCoV/Novel coronavirus) Spike Protein fragment (RBD, aa 367-606, His Tag) (Sino 40071-V08B1) (MERS-CoV), K9N5Q8
Assay: as above
Settings: remark: other sources report otherwise

| Binder | Binding signal (MFI) |
| --- | --- |
| B1 | 26 |
| B2 | 15 |
| B3 | 20 |
| B4 | 24 |

Molecular target: SARS-CoV-2 Spike Protein (RBD)(R319-F541).hFc (SARS-CoV-2)
Assay: as above
Settings: remark: other sources report otherwise

| Binder | Binding signal (MFI) |
| --- | --- |
| B1 | 4880 |
| B2 | 3980 |
| B3 | 2570 |
| B4 | 1740 |

Molecular target: SARS-CoV-2 Spike Protein (RBD)(R319-F541).mFc (SARS-CoV-2)
Assay: as above
Settings: remark: other sources report otherwise

| Binder | Binding signal (MFI) |
| --- | --- |
| B1 | 4580 |
| B2 | 2870 |
| B3 | 4260 |
| B4 | 2230 |
